For 4 molecules, Kd and EC50 results are on record in patent US20230212305A1 (published 2023).

For one assay, the target named is G2_709. Briefly: FACS binding to 293T cells.
Another assay deals with G2_336. The assay can be described thus: FACS binding to 293T cells.
The target in the next assay is G2_377. Briefly: FACS binding to 293T cells.
A further assay concerns the target G2_656. The assay can be described thus: FACS binding to 293T cells.
Another assay deals with G2_418. Briefly: FACS binding to 293T cells.
For a further assay, the target named is G2_639. The assay can be described thus: FACS binding to 293T cells.
In another assay the target is G2_745. Briefly: FACS binding to 293T cells.
A further assay concerns the target G2_620. The assay can be described thus: FACS binding, 293T-G2OX cells.
Assay [1] has as its target h5D3. The assay can be described thus: FACS binding, 293T-G2OX cells.
For assay [2], the target named is h5D3. The assay can be described thus: FACS cell binding.
The next assay addresses KNJY-G2-333H. The assay can be described thus: FACS cell binding.
For assay [3], the target named is h5D3. The assay can be described thus: FACS cell binding. The source holds these as a separate data set.
The target in assay [4] is T1, cynomolgus ABCG2 (Macaca fascicularis) (UniProt Q5MB13 1-654).
T1 chain: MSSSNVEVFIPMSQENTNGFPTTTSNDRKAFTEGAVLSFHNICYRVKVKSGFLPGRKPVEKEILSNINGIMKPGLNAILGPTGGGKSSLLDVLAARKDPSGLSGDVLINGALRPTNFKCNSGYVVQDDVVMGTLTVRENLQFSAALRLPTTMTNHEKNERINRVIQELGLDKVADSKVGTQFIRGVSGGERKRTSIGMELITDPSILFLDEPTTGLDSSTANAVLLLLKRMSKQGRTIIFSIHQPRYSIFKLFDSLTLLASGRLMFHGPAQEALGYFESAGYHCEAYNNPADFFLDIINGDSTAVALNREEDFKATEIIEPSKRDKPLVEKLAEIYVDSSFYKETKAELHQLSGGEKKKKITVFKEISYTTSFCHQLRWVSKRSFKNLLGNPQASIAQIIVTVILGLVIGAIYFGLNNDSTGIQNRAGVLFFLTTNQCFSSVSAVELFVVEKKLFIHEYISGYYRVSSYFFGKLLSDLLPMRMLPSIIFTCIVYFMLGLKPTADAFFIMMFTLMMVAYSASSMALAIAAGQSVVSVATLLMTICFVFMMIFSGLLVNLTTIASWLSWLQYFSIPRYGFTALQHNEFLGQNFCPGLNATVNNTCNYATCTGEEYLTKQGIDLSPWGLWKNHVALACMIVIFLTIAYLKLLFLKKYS
Briefly: cell binding.

The target in assay [5] is T2, human ABCG2 (UniProt Q9UNQ0 1-655).
T2 chain: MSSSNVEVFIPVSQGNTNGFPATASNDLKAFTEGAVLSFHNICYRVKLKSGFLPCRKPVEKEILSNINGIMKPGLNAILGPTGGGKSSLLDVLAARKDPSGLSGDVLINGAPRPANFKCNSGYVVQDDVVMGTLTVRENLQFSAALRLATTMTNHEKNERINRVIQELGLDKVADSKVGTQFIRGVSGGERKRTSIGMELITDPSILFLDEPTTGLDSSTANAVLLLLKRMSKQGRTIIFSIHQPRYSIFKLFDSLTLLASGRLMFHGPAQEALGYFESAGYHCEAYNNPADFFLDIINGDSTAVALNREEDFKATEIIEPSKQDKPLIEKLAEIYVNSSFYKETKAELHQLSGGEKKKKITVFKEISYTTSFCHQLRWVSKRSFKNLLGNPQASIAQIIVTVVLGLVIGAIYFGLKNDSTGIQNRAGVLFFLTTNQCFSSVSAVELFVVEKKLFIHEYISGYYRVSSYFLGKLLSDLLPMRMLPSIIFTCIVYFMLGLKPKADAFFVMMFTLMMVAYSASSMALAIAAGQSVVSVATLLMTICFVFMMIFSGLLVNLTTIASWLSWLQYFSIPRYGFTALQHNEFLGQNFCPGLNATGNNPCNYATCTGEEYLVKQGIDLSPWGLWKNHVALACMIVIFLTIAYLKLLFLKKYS
The assay can be described thus: cell binding.

Assay [6] concerns the target T1, cynomolgus ABCG2 (Macaca fascicularis). The assay can be described thus: FACS binding to 293T cells.
The target in assay [7] is T2, human ABCG2. Briefly: FACS binding to 293T cells.

B1: cG2 (other)
chain: MSSSNVEVFIPMSQENTNGFPTTTSNDRKAFTEGAVLSFHNICYRVKVKSGFLPGRKPVEKEILSNINGIMKPGLNAILGPTGGGKSSLLDVLAARKDPSGLSGDVLINGALRPTNFKCNSGYVVQDDVVMGTLTVRENLQFSAALRLPTTMTNHEKNERINRVIQELGLDKVADSKVGTQFIRGVSGGERKRTSIGMELITDPSILFLDEPTTGLDSSTANAVLLLLKRMSKQGRTIIFSIHQPRYSIFKLFDSLTLLASGRLMFHGPAQEALGYFESAGYHCEAYNNPADFFLDIINGDSTAVALNREEDFKATEIIEPSKRDKPLVEKLAEIYVDSSFYKETKAELHQLSGGEKKKKITVFKEISYTTSFCHQLRWVSKRSFKNLLGNPQASIAQIIVTVILGLVIGAIYFGLNNDSTGIQNRAGVLFFLTTNQCFSSVSAVELFVVEKKLFIHEYISGYYRVSSYFFGKLLSDLLPMRMLPSIIFTCIVYFMLGLKPTADAFFIMMFTLMMVAYSASSMALAIAAGQSVVSVATLLMTICFVFMMIFSGLLVNLTTIASWLSWLQYFSIPRYGFTALQHNEFLGQNFCPGLNATVNNTCNYATCTGEEYLTKQGIDLSPWGLWKNHVALACMIVIFLTIAYLKLLFLKKYS
Consider B1, for which the Kd with G2_709 is 0.0414 µM; with G2_336, 0.41 µM; with G2_377, 0.0314 µM; in the assay with G2_656 it was 0.272 µM; with G2_418, 0.0388 µM; with G2_639, 0.0143 µM.

B2: hG2 (other)
chain: MSSSNVEVFIPVSQGNTNGFPATASNDLKAFTEGAVLSFHNICYRVKLKSGFLPCRKPVEKEILSNINGIMKPGLNAILGPTGGGKSSLLDVLAARKDPSGLSGDVLINGAPRPANFKCNSGYVVQDDVVMGTLTVRENLQFSAALRLATTMTNHEKNERINRVIQELGLDKVADSKVGTQFIRGVSGGERKRTSIGMELITDPSILFLDEPTTGLDSSTANAVLLLLKRMSKQGRTIIFSIHQPRYSIFKLFDSLTLLASGRLMFHGPAQEALGYFESAGYHCEAYNNPADFFLDIINGDSTAVALNREEDFKATEIIEPSKQDKPLIEKLAEIYVNSSFYKETKAELHQLSGGEKKKKITVFKEISYTTSFCHQLRWVSKRSFKNLLGNPQASIAQIIVTVVLGLVIGAIYFGLKNDSTGIQNRAGVLFFLTTNQCFSSVSAVELFVVEKKLFIHEYISGYYRVSSYFLGKLLSDLLPMRMLPSIIFTCIVYFMLGLKPKADAFFVMMFTLMMVAYSASSMALAIAAGQSVVSVATLLMTICFVFMMIFSGLLVNLTTIASWLSWLQYFSIPRYGFTALQHNEFLGQNFCPGLNATGNNPCNYATCTGEEYLVKQGIDLSPWGLWKNHVALACMIVIFLTIAYLKLLFLKKYS
In the case of B2, the equilibrium dissociation constant (Kd) in the assay with G2_709 was found to be 0.0206 µM; in the assay with G2_336, 0.0282 µM; in the assay with G2_377, 0.0167 µM; with G2_656, 0.0368 µM; in the assay with G2_418, 0.059 µM; in the assay with G2_639, 0.0468 µM. For the same molecule, the Kd in the assay with G2_745 was found to be 0.0233 µM; with G2_620, 0.0158 µM; with h5D3 [1], 0.00299 µM.

B3: ABCG2 (other)
chain: MSSSNVEVFIPVSQGNTNGFPATASNDLKAFTEGAVLSFHNICYRVKLKSGFLPCRKPVEKEILSNINGIMKPGLNAILGPTGGGKSSLLDVLAARKDPSGLSGDVLINGAPRPANFKCNSGYVVQDDVVMGTLTVRENLQFSAALRLATTMTNHEKNERINRVIQELGLDKVADSKVGTQFIRGVSGGERKRTSIGMELITDPSILFLDEPTTGLDSSTANAVLLLLKRMSKQGRTIIFSIHQPRYSIFKLFDSLTLLASGRLMFHGPAQEALGYFESAGYHCEAYNNPADFFLDIINGDSTAVALNREEDFKATEIIEPSKQDKPLIEKLAEIYVNSSFYKETKAELHQLSGGEKKKKITVFKEISYTTSFCHQLRWVSKRSFKNLLGNPQASIAQIIVTVVLGLVIGAIYFGLKNDSTGIQNRAGVLFFLTTNQCFSSVSAVELFVVEKKLFIHEYISGYYRVSSYFLGKLLSDLLPMRMLPSIIFTCIVYFMLGLKPKADAFFVMMFTLMMVAYSASSMALAIAAGQSVVSVATLLMTICFVFMMIFSGLLVNLTTIASWLSWLQYFSIPRYGFTALQHNEFLGQNFCPGLNATGNNPCNYATCTGEEYLVKQGIDLSPWGLWKNHVALACMIVIFLTIAYLKLLFLKKYS
Take B3: the dissociation constant Kd came to 0.00312 µM with h5D3 [2], 0.0075 µM with KNJY-G2-333H and 0.081 µM with h5D3 [3].

B4: G2.643 mouse (antibody, V domains shown)
VH: VNLVESGPELVKPGTSVKISCKASGYRFTSYYVHWVKQRPGQGLEWIGWIFPGSDNTKYNEKFKGKATLTADTSSSTAYMQLSSLTSEDSAVYFCASIYYGYDGTLYFDYWGQGTSVTVSS
VL: DIVMTQSHTFMSTSVGDRVSVTCKASQNVGNNVAWYQQKPGQSPNALIYSASYRYSGVPDRFTGSGSGTDFTLTISNVQSEDLAEYFCQQYDRYPLTFGGGTKLEIK
Take B4: the values for the EC50 (in assay [4]; with human ABCG2 [5]) were 0.065 µM and 0.027 µM, respectively. In addition, the Kd came to 0.0171 µM in assay [6] and 0.0059 µM with human ABCG2 [7].
